The results in this text go back to patent US20230234992A1.

This assay has as its target S Stabilizing Construct #21, CoV2_S2_1_pross mutant Spike (S) protein (SARS-CoV-2) (UniProt P0DTC2).

As to CR3022 antibody (RBD Specific Antibody), the fold affinity decrease was found to be 17 fold.
